Test results reported in the DeepSol protein solubility set.

experiment: soluble on expression in E. coli; label from the status in PepcDB or PDB records

| Sequence | soluble on expression in E. coli |
| --- | --- |
| MELPRAFGLLLHPTSLPGPYGVGVLGREARDFLRFLKEAGGRYWQVLPLGPTGYGDSPYQSFSAFAGNPYLIDLRPLAERGYVRLEDPGFPQGRVDYGLLYAWKWPALKEAFRGFKEKASPEEREAFAAFREREAWWLEDYALFMALKGAHGGLPWNRWPLPLRKREEKALREAKSALAEEVAFHAFTQWLFFRQWGALKAEAEALGIRIIGDMPIFVAEDSAEVWAHPEWFHLDEEGRPTVVAGVPPDYFSETGQRWGNPLYRWDVLEREGFSFWIRRLEKALELFHLVRIDHFRGFEAYWEIPASCPTAVEGRWVKAPGEKLFQKIQEVFGEVPVLAEDLGVITPEVEALRDRFGLPGMKVLQFAFDDGMENPFLPHNYPAHGRVVVYTGTHDNDTTLGWYRTATPHEKAFMARYLADWGITFREEEEVPWALMHLGMKSVARLAVYPVQDVLALGSEARMNYPGRPSGNWAWRLLPGELSPEHGARLRAMAEATERL | soluble |
| MTIALELQQLKKTYPGGVQALRGIDLQVEAGDFYALLGPNGAGKSTTIGIISSLVNKTSGRVSVFGYDLEKDVVNAKRQLGLVPQEFNFNPFETVQQIVVNQAGYYGVERKEAYIRSEKYLKQLDLWGKRNERARMLSGGMKRRLMIARALMHEPKLLILDEPTAGVDIELRRSMWGFLKDLNDKGTTIILTTHYLEEAEMLCRNIGIIQHGELVENTSMKALLAKLKSETFILDLAPKSPLPKLDGYQYRLVDTATLEVEVLREQGINSVFTQLSEQGIQVLSMRNKANRLEELFVSLVNEKQGDRA | not soluble |
| MPGKLTATILTRNEAANIGDCIDSLAQLADEVIVLDSGSTDATRDIARARGANVIEDDGPWPGFGPQKNRALDRATGEWVLSIDADERVPPELAQEIRTAMARADADAYAIPRLSQFCGAWVHHSGWRPDHVIRLFRRGKARFSENLVHESLQVTGNVARLRTSLLHYSYTSMDQVHRKSAQYAEAGARDLTQRGKHIGALSPVLHGTWAFVRTLVLRRGFLDGGTGLAIARMNATVSYRKYRRARELASGANHRPLEHHHHHH | not soluble |
| GPGSMAPALCFTCMQPSRWTREGLPLILPLFQHLSPLSPFPNPSCNGISMCCTHTHTHTHTHTHTHTHAHTRLHLFQRFCFVNAIDFYELGAKSTRRVHGKVIIAARSRAPAMPPPAAAVSSSPSSSAAPMAVVYVRRDGRTALELRGKEMKLSDMTTFDGSSWYAQGQTAVMVSIHGPTIAKNDEYDTCIVQVRIQHAGVLAPAAGGAEKALYEERKLELLTRTDALALGSLLESTLNAVFLRERFPRCVLVVDVIVVRDDGSLPAVALNAVMSALLDAGLPCRTTMAAVCVAVLTHDGGADSNSGPAPDRHSSVEGSSSAGSVYEYLLDPTSAEESLGVGYAVPASSAAEKAAVTGASSVATSSAAPMSLRGGNAAQQVQGQYRCVSTGVFAFSNPACGGGLLAQLVRSVGSGSAEMCGPGVSVQAYAEMVALAERASAVLFEFFRQCNVAE | not soluble |
| MGSDKIHHHHHHMSNNLLVLQSDFGLVDGAVSAMIGVALQEAPTLGIHNLTHEITPYNIFEASYRLFQTVEYWPQGTTFVSVVDPGVGSDRKSVVALTSRNQYIVTPDNGTLSYIKKHVGIKAVREISEIENRRRNTELSYTFHGRDVYAFTGAKLASDHISFEEVGPELAIESIVELPVVETVIEDNLVRGAVDILDVRFGSLWTSITREEFYTLKPEFNDRFEVTIYNNDMLVYQNQVTYGKSFAAVRIGQPIIYINSLYRVGVAINQGSFANAYNVGVGPQWRIEIKKLN | not soluble |
| MGSDKIHHHHHHMTDYFSYLGLQPSREELIQRFGLELDKLMTLDLNLTGRPSYLYSRERNGSGEASSTAFAQLLLDSLASKDVSILVTGWPVRSSIDVSIGEADGPIGAAAIARALHMTTGAVSLAMAPAPLAAQVAAAFRSAGATIIDFDAFERLSKGNERLFGVAIVGLDVDCDLSNYFAELLQNVKPKTVIAIEHYGFSAEGKPYHGTGNVVEPGTALTHPLFDQAMAEGLICGSCVDNPNEVGTSRLHDAGVKHPPMRNDFANLLVGSSANSAAFALCAALAGLSATPTAAFPGSLDEAGIAATLAHGAIDPFSGTADPSFGVDTIESPYHAWIADLMGRLAKGYCVAAATERHL | not soluble |
| MSVIIVGGGMAGATLALAISQFSHGTLPVHLIEAKAPEADGHPGFDARAIALAAGTCQQLARIGVWQAISDCATAINTVHVSDRGHAGFVTLDAQDYSLAALGHVAELHDIGLRLFALLRKAPGVTLHCPERVASVSRTQQQVNVTLENGNVIAGSVLVAANGTHSALASRCGVDWHQEPYEQLAVIANVATAIPHQGRAFERFTPNGPLAMLPMSHGRCSLVWCHPLDQRDEVLSWSDAQFCHALQAAFGWRLGRITQAGKRSAYPLALTTAAKVFSHRTVVVGNAAQTLHPIAGQGFNLGLRDVMSLAETLVAAQDAGEDIGAWHVLSRYQQRRQVDRDTTIGVTNGLVHLFANRWAPLVIGRNIGLMAMELLPPARDALAQRTLGWVARLEHHHHHH | not soluble |
| MSLKDMSYQAVMGRNNEIMKNAIGLDYSSFEQEGIGFDYEKMMSETGYTLQDIEAIQSQYAVGNTPLIELKNLTKLARKCAKEGKGARIFVKDEAMNASGSFKARRAATAVYHAKQMGYKGVIAATSGNYGAAVASQAAMQGLKCIIVQECYDSNGVGQPEIIEKARKCEAYGAEVVQLTVGPELFYTFLVLLEETGYFNASLYSPFGIAGVETLGYELAIQFREKYKKDPDIVVCTNAGGGNLTGTARGLIKAGSINTKVVGASVDLKGLHMASDNQFNKKSFTTGHTGFGIPYCTWPDRSDVPRSAARPLRYMDRYVLVKQGEVFYTTELLAQLEGIERGPAGNTSLAAAFSLAQELDEDKAIVVQETEYTGAGKHICPQLTFARENGIDIKFGNPREEIAGVNLILPERPELLKCVDIDMNKIRNSFIKNCISNNHIDNIDKLSNRDIEFLMEEVKSSRDFVVDVLNNLEGHHHHHH | not soluble |
| MHENKYLTIYHDLISRIRRGEWKAYDKLPSEHELAARYETSRETIRKALHLLSEHGYIQKMKGKGSIVLDVGKYDFPVSGLVSFKELAQTMKQPVRTIVHELAIIKPDRELRQHLRASSKDEVWKVVRVREIGGERIILDKDFFLKKHVPLLTKEICEDSIYEYLETKLHLPISFAKKEISVDEATDEDRRYLDLHGDDRVVVVKNYVYLSDAALFQYTESRHRLDKFRFVDFARRK | not soluble |
| MSSTKSIPADVIAKLQKFDELITKLEDAVEEVDVGVEKHFERSAHEMALVDTMSMFLMDSLMWAVQATKGGGADKNDDLLIDLARTKRMTADMKEINLRQDAPRINKQAAANFVRNALWEQPEQGESSKKAAK | not soluble |
| MTNKQVEISMAEWDVMNIIWDKKSVSANEIVVEIQKYKEVSDKTIRTLITRLYKKEIIKRYKSENIYFYSSNIKEDDIKMKTAKTFLNKLYGGDMKSLVLNFAKNEELNNKEIEELRDILNDISKK | soluble |
| GVTGISTGFIDLNKKTAGLQPSDLIIVAARPSMGKTTFAMNLCENASLHDIEDHNDLDENGNPRKKPAKPVLIFSLEMPADQIMMRMLASLSRVNQTKIRTGQIHDDEEWAKISSTVAILQERKNIFIDDSAGLTPTELRSRARRIYRENGGLSLIMVDYLQLMRVPNFSDNRTLEIAEISRSLKALAKELEVPVVALSQLNRSLEQRQDKRPVNSDL | not soluble |
| MGSDKIHHHHHHMSLASFNPRVARLATPPIPSVFGWGRAYDAAAGPLIDLSQAAPGHPPHADLLAWLAQAAGSAEACGYGAIEGELVLRRAYCTHLSELYGAAFTPEQIHITAGANQAFICAAMALAGAGERIALTDPFYFNHDTTLAMLGIETVALPCDSDNGFLPDLDRAEQVVKSGIKALALVTPNNPTGAVYPKELLADLYRLCRAHGVWLIVDETYRDFLNPEFGRPHELFSQPDWPEGLIQIYSFSKSFAIPGHRLAAICAGGPVVEQIAKIMDNLQICAPRAAQIALAKALPVLDGWRAENAAEIARRTVALRRAFDLVPQWHLASIGAYFAFARHPFGQAASIDVAEQLARRAGILAVPGGFFGSRQEGYLRLAFANVDCPTIETLPDRLRTFTLAG | not soluble |
| MGSDKIHHHHHHMFSQHSFDFLNSLAVNNDREWFKTNQQQYEDQVRTPALQFIEAMQGPILGLSPRFTAVAKKVGGSLMRPQRDSRFSKDKTPYKTNVGIQFKHFQAKDVHAPGFYVHIANDECFIAAGIWHPESKDLNAIRHCIDENPNAYQKALTQLSQAGFELTGDSLIRPPRGFDKHHPMIDELRRKDFIAIKPISSEQVCQADFIEFCTQEYQHTRALMAYLCFALDLDF | not soluble |
| MGDDLDSLTDQLSSGFQVDPLALGEHPRYSQYKNLTKAAEQQAKRREETLERQKNGRFDTFMKLRNLAFDDVTSDEDDEQKIETTTAEKHTGKFKKYADKMMLSEWLVDIPESLSSDWTMVMAPVGKRTLVVASRGFTVAYNKGGREVSRFQSRLPGGNTRAKNQAWTILDCIYSNQTYYVLDLLSWNAHEYVESPYDFRQFMLKSKLEEAPELAKSTPGFRNIFSPIPSCPCSQDQMAELMKNEISFRLDGLLFYHNSVVYQPGQSPLVGWLKPWMLPEILNVPVPEKYKAESNGQSSSQFIESFNQKHKHQSKIDRSMEH | not soluble |
| MTIKRVGILGAGKVGIVLAGLALKAGYEVRISGSGSVDKIDLTISTLVPGAIASENAEVVANSDIIILAIPLSRYKNIDPTLLKGKLVIDAMNYWWETDGIREEVLDPTLTSSEQVQNYFKDSTIVKTFNHMGYHNLQEEALPKLEHHHHHH | soluble |
| MGSDKIHHHHHHMIAIEEIGRITPDNLGLVTVLAGEDLGQYAQMKEKLFQVIGFNKDDLAYSYFDLSEEDYQNAELDLESLPFLSDYKVVIFDQFQDITTDKKTYLDEQAMKRFEAYLQNPVDTTRLVICAPGKLDGKRRLVKLLKRDARVLEANTLKESDLKTYFQKYAHQEGLVFEAGVFDELLIKSNYDFSDTLTNIAFLKSYKTDGHISSNDVREAIPKSLQDNIFDLTQDVLLGRIDLARDLVRDLRLQGEDEIKLIAIMLGQFRMFLQVKILASKGKSESQIVSELSHYIGRKINPYQVKFAVRDSRNLPLAFLKEAIRILIETDYAIKRGTYDKDYLFDLALLKIAHKKP | not soluble |
| MGSDKIHHHHHHMKSKNLSPYIKYIELDRVRVPSFSRYPFHLPAVRNLDTLALHPKVTFLVGENGSGKSTILEAIAVAYGFNAEGGTKNFNFSSRRTHSDLSDYVKVVKGTRTPRNGFFLRAESFYNFASNLDDLDSEMAFGPSLIDSYGGRSLHEQSHGESFFAVFLNRFSGDGVYILDEPEAALSPSRQMSMLSRMHELVGEGAQFIIATHSPIIMAYPDALIYQIADDIEQVGYQETEHYRITRAFLNHPQKMLKLLLE | not soluble |
| MKKAALMLITFLGLTACSQGVTSMPDRTQTPCGNKPNCVSTQDQREEHHLEPFTLTESATLDAIEQAALQLSGAKTAEKDGNYLRIECTSKIMRFVDDLELKIDGNTLIVRSESRVGYSDFGVNRKRAEQLRTELSKAELIKLEHHHHHH | not soluble |
| MGSDKIHHHHHHMPRDTLVSHRQSVDIGGKFSGKTVLTLDVYGTLIDWERGICDALGPILRGHGLSTSEDEMLERYATHESALEAGPYLTYREILEESLLRIAADLGFTPSEYELDIFSHSVGDWPAFADSRAALVALQKRFRLAVITNGDDEFFSLSNKHLKIQFDYVVTAQQARSYKPSLNNFHVALGRIDAPRSQILHVAQSLYHDHVPAQALGLQTVWINRRRGKPGFGAVPKAEAVPDAEFDDMRAFADAMLER | not soluble |
